Experimental findings from IntAct's records for PubMed 18366438 are described below.

B1: DNA primase (Geobacillus stearothermophilus), Q9X4D0 (parent)
chain: MGHRIPEETIEAIRRGVDIVDVIGEYVQLKRQGRNYFGLCPFHGEKTPSFSVSPEKQIFHCFGCGAGGNAFTFLMDIEGIPFVEAAKRLAAKAGVDLSVYELDVRGRDDGQTDEAKAMTEAHALLKRFYHHLLVHTKEGQAALDYLQARGWTKETIDRFEIGYAPDAPDAAAKLLESHSFSLPVMEKAGLLTKKEDGRYVGRFRNRIMFPIHDHRGETVGFSGRLLGEGHPKYVNSPETPVFRKGAILYHFHAARVPIRKRQEALLVEGFADVISAAQAGIDYAIATMGTSLTEEQARILRPCDTITICYDGDRAGIEAAWAAAEQLSALGCRVKVASLPNGLDPDEYIRVYGGERFAGEAGCRRPLVAFKMAYLRRGKNLQHEGERLRYIDEALREIGKLSSPVEQDYYLRQLAEEFSLSLSALHEQLSRSQRERTKPREAPDGETARPMLAKKLLPAFQNAERLLLAHMMRSRDVALVVQERIGGRFNIEEHRALAAYIYAFYEEGHEADPGALISRIPGELQPLASDVSLLLIADDVSEQELEDYIRHVLNRPKWLMLKVKEQEKTEAERRKDFLTAARIAKEMIEMKKMLSSS
partner: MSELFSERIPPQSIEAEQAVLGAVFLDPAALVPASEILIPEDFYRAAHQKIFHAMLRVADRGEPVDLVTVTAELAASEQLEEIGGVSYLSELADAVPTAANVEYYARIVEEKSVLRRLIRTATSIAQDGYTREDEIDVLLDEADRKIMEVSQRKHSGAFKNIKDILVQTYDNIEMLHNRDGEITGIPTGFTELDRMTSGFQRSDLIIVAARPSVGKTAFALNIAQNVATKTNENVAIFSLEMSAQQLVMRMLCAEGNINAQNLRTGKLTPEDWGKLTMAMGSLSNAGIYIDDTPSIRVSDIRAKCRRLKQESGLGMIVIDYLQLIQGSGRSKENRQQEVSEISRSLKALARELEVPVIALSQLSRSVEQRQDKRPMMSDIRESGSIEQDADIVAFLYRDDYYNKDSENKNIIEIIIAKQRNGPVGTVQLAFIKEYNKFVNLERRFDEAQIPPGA

The variants in the first assay derive from B1. As to conditions: with dnab_geose dnaB.
With Y548A, the “effect of a mutation on the interaction” value is “decreasing interaction strength”.

In another assay the parent is B1. Conditions: with dnab_geose dnaB. The source holds these as a separate data set.
With P458A, the “effect of a mutation on the interaction” value is on record as “decreasing interaction strength”.
